According to publication PMC3745222:

Target: full-length GST-Smad3 (UniProt P84022)
Test: pull-down

Sequence of UniProt P84022 (P84022 whole entry): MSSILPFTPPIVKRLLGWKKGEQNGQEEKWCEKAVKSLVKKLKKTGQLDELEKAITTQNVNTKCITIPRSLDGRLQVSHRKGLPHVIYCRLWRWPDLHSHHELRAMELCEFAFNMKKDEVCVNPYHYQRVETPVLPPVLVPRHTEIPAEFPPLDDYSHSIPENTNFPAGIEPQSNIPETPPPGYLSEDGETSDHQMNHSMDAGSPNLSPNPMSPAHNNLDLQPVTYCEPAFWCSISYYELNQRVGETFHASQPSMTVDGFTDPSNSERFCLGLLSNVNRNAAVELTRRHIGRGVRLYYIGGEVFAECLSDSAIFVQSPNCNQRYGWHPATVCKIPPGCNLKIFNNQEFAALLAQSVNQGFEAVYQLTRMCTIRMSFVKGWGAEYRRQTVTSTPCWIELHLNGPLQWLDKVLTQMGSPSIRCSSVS

## intracellular Notch1 (ICN1), the active form of Notch1 (domain or fragment)
  fold increase of binding in β2SP shRNA cells against control cells: 2 fold
